Legend:
[1] = Peracetic acid generation from hydroxyapatite bound CE-7 perhydrolase fusions (Example 8); assay type: biochemical; details: for Peracetic acid (ppm): hydroxyapatite particles exposed to 10 μM enzyme, washed, 100 mM triacetin, 100 mM H2O2, 30 min, 37° C., no enzyme 30-118.8
Experimental: (§1) The detection of peracetic acid followed the method described in Pinkernell et. al. (Analyst, 1997, 122, 567) using colorimetric detection of 2,2′-azino-bis(3-ethylbenzothiazoline(-6-sulfonate (ABTS) oxidation by peracetic acid. Following the formation of peracetic acid with the addition of triacetin and hydrogen peroxide, 90 μL of solution was added to 10 μL of 0.1 M H3PO4 in a well plate. 50 μL of 1 M acetic acid, 50 μL of 0.5 g/L ABTS and 50 μL of 0.002 g/L of KI was added. The solution was allowed to develop for 5 min. The absorbance of the solution was measured at 405 nm using a microplate reader. The peracetic acid concentration was calculated based on a standard curve developed simultaneously using peracetic acid reagent solution.
To assess binding of these constructs to hydroxyapatite, 33 mg of hydroxyapatite particles (Macro-prep Ceramic Hydroxyapatite TYPE I, 80 μm size BioRad, Hercules, Calif.), were washed with 10 mM phosphate buffer at pH 7.2. After removing the supernatant, enzyme stock solution was added to the hydroxyapatite dispersion to a final concentration of 10 μM and incubated for 30 min in a microcentrifuge tube with gentle agitation. Each sample was centrifuged for 1 min at 10000 rpm. The supernatant was removed and additional buffer was added. The particles were resuspended and transferred to a new tube. The process was repeated two additional times. The hydroxyapatite bound enzyme activity was measured by adding a 500 μl solution containing 100 mM triacetin, 100 mM H2O2 in 100 mM phosphate buffer, pH 7.2. The solution was incubated for 30 min, at 37° C. An aliquot was removed and mixed with H3PO4 and properly diluted for detection via ABTS oxidation as described in Example 7. The experiments were performed at different day with no enzyme as control for each experiment.

[2] = Peracetic acid generated in solution by CE-7 perhydrolase fusions (Example 8); assay type: biochemical; details: 0.5 μM enzyme, 100 mM triacetin, 100 mM H2O2, pH 7.2, 10 min, 37° C.; no enzyme 378.9
Experimental: as §1
Perhydrolase enzymes listed in Table 6 were assessed for solution activities. The method to measure the perhydrolase in solution activity was described in Example 7 by making a 500 μL solution containing 0.5 μM of enzyme, 100 mM triacetin, 100 mM H2O2 in 100 mM phosphate buffer, pH 7.2. The solution was mixed and incubated for 10 min at 37° C. A 10 μL aliquot was removed and diluted for detection as described in Example 7. Peracetic acid concentration was determined using a standard curve generated with a stock solution of peracetic acid (Aldrich). The experiment was also performed with no enzyme present as a control.

Row | Molecule | Peracetic acid (ppm) [1] [ppm] | PAA (ppm) [2] [ppm] | activity after binding to hydroxyapatite (in words) ([1]; targeted vs untargeted B. pumilus fusion)
1 | EZ-29: Bpu-link1-DenP308-H6, SEQ ID NO: 453 (protein) MQLFDLSLEELKKYKPKKTARPDFSDFWKKSLEELRQVEAEPTLESYDYPVKGVKVYRLTYQSFGHSKIEGFYAVPDQTGPHPALVRFHGYNASYDGGIHDIVNWALHGYATFGMLVRGQGGSEDTSVTPGGHALGWMTKGILSKDTYYYRGVYLDAVRALEVIQSFPEVDEHRIGVIGGSQGGALAIAAAALSDIPKVVVADYPYLSNFERAVDVALEQPYLEINSYFRRNSDPKVEEKAFETLSYFDLINLAGWVKQPTLMAIGLIDKITPPSTVFAAYNHLETDKDLKVYRYFGHEFIPAFQTEKLSFLQKHLLLSTGPGSGGAGSPGSAGGPGSDPTKPPRTPTANTSRPHHNFGSGGGGSPHHHHHH | 1299.8 | 2273.5 | higher binding activity compared to the untargeted EZ-27
2 | EZ-27: Bpu-link1-H6, SEQ ID NO: 451 (protein) MQLFDLSLEELKKYKPKKTARPDFSDFWKKSLEELRQVEAEPTLESYDYPVKGVKVYRLTYQSFGHSKIEGFYAVPDQTGPHPALVRFHGYNASYDGGIHDIVNWALHGYATFGMLVRGQGGSEDTSVTPGGHALGWMTKGILSKDTYYYRGVYLDAVRALEVIQSFPEVDEHRIGVIGGSQGGALAIAAAALSDIPKVVVADYPYLSNFERAVDVALEQPYLEINSYFRRNSDPKVEEKAFETLSYFDLINLAGWVKQPTLMAIGLIDKITPPSTVFAAYNHLETDKDLKVYRYFGHEFIPAFQTEKLSFLQKHLLLSTGPGSGGAGSPGSAGGPGSHHHHHH | 634.9 | 2332.9 | 
3 | EZ-28: Bpu-link1-HC263-H6, SEQ ID NO: 452 (protein) MQLFDLSLEELKKYKPKKTARPDFSDFWKKSLEELRQVEAEPTLESYDYPVKGVKVYRLTYQSFGHSKIEGFYAVPDQTGPHPALVRFHGYNASYDGGIHDIVNWALHGYATFGMLVRGQGGSEDTSVTPGGHALGWMTKGILSKDTYYYRGVYLDAVRALEVIQSFPEVDEHRIGVIGGSQGGALAIAAAALSDIPKVVVADYPYLSNFERAVDVALEQPYLEINSYFRRNSDPKVEEKAFETLSYFDLINLAGWVKQPTLMAIGLIDKITPPSTVFAAYNHLETDKDLKVYRYFGHEFIPAFQTEKLSFLQKHLLLSTGPGSGGAGSPGSAGGPGSPSAQSQLPDKHSGLHERAPQRYGPEPEPEPEPIPEPPKEAPVVIEKPKPKPKPKPKPPAHDHKNQKETHQRHAAGSGGGGSPHHHHHH | 534.2 | 2512.7 | 
4 | EZ-30: Mlo-link1-H6, SEQ ID NO: 454 (protein) MPFPDLIQPELGAYVSSVGMPDDFAQFWTSTIAEARQAGGEVSIVQAQTTLKAVQSFDVTFPGYGGHPIKGWLILPTHHKGRLPLVVQYIGYGGGRGLAHEQLHWAASGFAYFRMDTRGQGSDWSVGETADPVGSTSSIPGFMTRGVLDKNDYYYRRLFTDAVRAIDALLGLDFVDPERIAVCGDSQGGGISLAVGGIDPRVKAVMPDVPFLCDFPRAVQTAVRDPYLEIVRFLAQHREKKAAVFETLNYFDCVNFARRSKAPALFSVALMDEVCPPSTVYGAFNAYAGEKTITEYEFNNHEGGQGYQERQQMTWLSRLFGVGGPGSGGAGSPGSAGGPGSHHHHHH | 658.5 | 468.8 | 

Second part, led by results:

Row | Peracetic acid (ppm) [1] [ppm] | PAA (ppm) [2] [ppm] | Molecule | activity after binding to hydroxyapatite (in words) ([1]; targeted vs untargeted B. pumilus fusion)
5 | 359.1 | 1062.5 | EZ-33: Lla-link1-H6, SEQ ID NO: 457 (protein) MTKINNWQDYQGSSLKPEDFDKFWDEKINLVSNHQFEFELIEKNLSSKVVNFYHLWFTAIDGAKIHAQLIVPKNLKEKYPAILQFHGYHCDSGDWVDKIGIVAEGNVVLALDCRGQGGLSQDNIQTMGMTMKGLIVRGIDEGYENLYYVRQFMDLITATKILSEFDFVDETNISAQGASQGGALAVACAALSPLIKKVTATYPFLSDYRKAYELGAEESAFEELPYWFQFKDPLHLREDWFFNQLEYIDIQNLAPRIKAEVIWILGGKDTVVPPITQMAAYNKIQSKKSLYVLPEYGHEYLPKISDWLRENQGPGSGGAGSPGSAGGPGSHHHHHH | 
6 | 242.2 | 786 | EZ-34: Lla-link1-HC263-H6, SEQ ID NO: 458 (protein) MTKINNWQDYQGSSLKPEDFDKFWDEKINLVSNHQFEFELIEKNLSSKVVNFYHLWFTAIDGAKIHAQLIVPKNLKEKYPAILQFHGYHCDSGDWVDKIGIVAEGNVVLALDCRGQGGLSQDNIQTMGMTMKGLIVRGIDEGYENLYYVRQFMDLITATKILSEFDFVDETNISAQGASQGGALAVACAALSPLIKKVTATYPFLSDYRKAYELGAEESAFEELPYWFQFKDPLHLREDWFFNQLEYIDIQNLAPRIKAEVIWILGGKDTVVPPITQMAAYNKIQSKKSLYVLPEYGHEYLPKISDWLRENQGPGSGGAGSPGSAGGPGSPSAQSQLPDKHSGLHERAPQRYGPEPEPEPEPIPEPPKEAPVVIEKPKPKPKPKPKPPAHDHKNQKETHQRHAAGSGGGGSPHHHHHH | 
7 | 260 | 998 | EZ-35: Lla-link1-DenP308-H6, SEQ ID NO: 459 (protein) MTKINNWQDYQGSSLKPEDFDKFWDEKINLVSNHQFEFELIEKNLSSKVVNFYHLWFTAIDGAKIHAQLIVPKNLKEKYPAILQFHGYHCDSGDWVDKIGIVAEGNVVLALDCRGQGGLSQDNIQTMGMTMKGLIVRGIDEGYENLYYVRQFMDLITATKILSEFDFVDETNISAQGASQGGALAVACAALSPLIKKVTATYPFLSDYRKAYELGAEESAFEELPYWFQFKDPLHLREDWFFNQLEYIDIQNLAPRIKAEVIWILGGKDTVVPPITQMAAYNKIQSKKSLYVLPEYGHEYLPKISDWLRENQGPGSGGAGSPGSAGGPGSDPTKPPRTPTANTSRPHHNFGSGGGGSPHHHHH | 
8 | 241.4 | 434.9 | EZ-31: Mlo-link1-HC263-H6, SEQ ID NO: 455 (protein) MPFPDLIQPELGAYVSSVGMPDDFAQFWTSTIAEARQAGGEVSIVQAQTTLKAVQSFDVTFPGYGGHPIKGWLILPTHHKGRLPLVVQYIGYGGGRGLAHEQLHWAASGFAYFRMDTRGQGSDWSVGETADPVGSTSSIPGFMTRGVLDKNDYYYRRLFTDAVRAIDALLGLDFVDPERIAVCGDSQGGGISLAVGGIDPRVKAVMPDVPFLCDFPRAVQTAVRDPYLEIVRFLAQHREKKAAVFETLNYFDCVNFARRSKAPALFSVALMDEVCPPSTVYGAFNAYAGEKTITEYEFNNHEGGQGYQERQQMTWLSRLFGVGGPGSGGAGSPGSAGGPGSPSAQSQLPDKHSGLHERAPQRYGPEPEPEPEPIPEPPKEAPVVIEKPKPKPKPKPKPPAHDHKNQKETHQRHAAGSGGGGSPHHHHHH | 
9 | 419.3 | 497.7 | EZ-32: Mlo-link1-DenP308-H6, SEQ ID NO: 456 (protein) MPFPDLIQPELGAYVSSVGMPDDFAQFWTSTIAEARQAGGEVSIVQAQTTLKAVQSFDVTFPGYGGHPIKGWLILPTHHKGRLPLVVQYIGYGGGRGLAHEQLHWAASGFAYFRMDTRGQGSDWSVGETADPVGSTSSIPGFMTRGVLDKNDYYYRRLFTDAVRAIDALLGLDFVDPERIAVCGDSQGGGISLAVGGIDPRVKAVMPDVPFLCDFPRAVQTAVRDPYLEIVRFLAQHREKKAAVFETLNYFDCVNFARRSKAPALFSVALMDEVCPPSTVYGAFNAYAGEKTITEYEFNNHEGGQGYQERQQMTWLSRLFGVGGPGSGGAGSPGSAGGPGSDPTKPPRTPTANTSRPHHNFGSGGGGSPHHHHHH | 
